± gives the standard error. Fewer inactive variants are shown than the library holds.
B1: glmS ribozyme (parent)
chain: AUAAAAGCGCCAGAACUACAGAAAUGUAGUUGACGAGGAGGAGGUUUAUCGAAUUUUCGGCGGAUGCCUCCAAA

Experiments:
Settings in all cases: with glucosamine-6-phosphate
[1] = variants of: B1; experiment: self-cleavage kobs at 160 uM GlcN6P; higher = faster cleavage; RNA array
How it was run: (§1)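 The measurements used barcoded ribozyme variants on sequenced MiSeq chips, transcribed in situ by E. coli RNA polymerase and tracked at 37 °C with a hybridised Cy3 probe. Glucosamine-6-phosphate, 40 μM to 10 mM in HEPES/KCl/Mg(OAc)2 buffer, was flowed in while tiles were imaged over ~14 h. Baseline-normalised signals, also normalised to non-cleaving reference variants, gave per-tile medians that were fit to one- or two-exponential decays for kobs. kcat and KM resulted from weighted Michaelis–Menten fits across concentrations.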

[2] = variants of: B1; experiment: self-cleavage kobs at 640 uM GlcN6P; higher = faster cleavage; RNA array
How it was run: as §1

[3] = variants of: B1; experiment: self-cleavage kobs at 2500 uM GlcN6P; higher = faster cleavage; RNA array
How it was run: as §1

[4] = variants of: B1; experiment: self-cleavage kobs at 10000 uM GlcN6P; higher = faster cleavage; RNA array
How it was run: as §1

| Variant | self-cleavage kobs at 160 uM GlcN6P [1] [s⁻¹] | self-cleavage kobs at 640 uM GlcN6P [2] [s⁻¹] | self-cleavage kobs at 2500 uM GlcN6P [3] [s⁻¹] | self-cleavage kobs at 10000 uM GlcN6P [4] [s⁻¹] |
| --- | --- | --- | --- | --- |
| A6C C8U C67A C70U | < 1e-05 | – | – | – |
| G32U G51U | < 1e-05 | < 1e-05 | – | – |
| U46A C61G | < 1e-05 | < 1e-05 | < 1e-05 | – |
| G37C G41A C50G G60A C67G C68A | 9.12e-05 ± 1.6e-05 | 8.46e-05 ± 1.9e-05 | 9.58e-05 ± 1.3e-05 | – |
| A6U C11G U30G U31A A42U | < 1e-05 | < 1e-05 | < 1e-05 | – |
| G37A U49C | < 1e-05 | < 1e-05 | < 1e-05 | < 1e-05 |
| A48G A52C U55C | < 1e-05 | < 1e-05 | – | – |
| A12G G32C C71A | < 1e-05 | < 1e-05 | – | – |
| A6U A14U G38U C50A G51U A53C G63A | < 1e-05 | – | – | – |
| G13C A14U G32A | 0.000741 ± 0.00017 | – | 0.00667 ± 0.0017 | – |
| C34U G35U A39C G63A C67U | < 1e-05 | – | – | – |
| A33G U47G A48C G51C | < 1e-05 | – | – | – |
| A14G A36C G44C G51A G62A | < 1e-05 | – | – | – |
| G38A G41A C71A | < 1e-05 | – | < 1e-05 | – |
| C16G A42G A53G C67G | 0.000151 ± 3.4e-05 | 0.000268 ± 5.9e-05 | 0.000323 ± 8.1e-05 | – |
| G26U U54A | 0.000887 ± 0.00025 | 0.00635 ± 0.002 | 0.00265 ± 0.0013 | 0.0333 ± 0.0093 |
| G32A A42G G43C G51U G66C | < 1e-05 | < 1e-05 | – | – |
| G29U A39G G59U C67U | < 1e-05 | < 1e-05 | – | – |
| C58G U69A | 5.46e-05 ± 2.7e-05 | 0.000406 ± 9.6e-05 | – | – |
| G32U U45G C70A | < 1e-05 | < 1e-05 | – | – |
| C34G U56A G62A C67U | < 1e-05 | – | – | – |
| G35U A64U | < 1e-05 | < 1e-05 | < 1e-05 | < 1e-05 |
| G9A A12G A14G G35U | < 1e-05 | – | < 1e-05 | – |
| G7C G13C A48G C70A | < 1e-05 | < 1e-05 | < 1e-05 | – |
| G35U A42C U55C | < 1e-05 | < 1e-05 | – | – |
| A53U U54G U55A U56A | 0.000355 ± 7.8e-05 | – | – | – |

| Variant | self-cleavage kobs at 160 uM GlcN6P [1] [s⁻¹] | self-cleavage kobs at 640 uM GlcN6P [2] [s⁻¹] | self-cleavage kobs at 2500 uM GlcN6P [3] [s⁻¹] | self-cleavage kobs at 10000 uM GlcN6P [4] [s⁻¹] |
| --- | --- | --- | --- | --- |
| G9C U56G A64C | < 1e-05 | < 1e-05 | < 1e-05 | – |
| U30A U54A C67U C68A | 3.56e-05 ± 1.7e-05 | – | 4.46e-05 ± 2.1e-05 | – |
| C8U A12C A36G G37A | < 1e-05 | – | – | – |
| C8G U57C G62U | < 1e-05 | < 1e-05 | < 1e-05 | < 1e-05 |
| A36U U45A | < 1e-05 | < 1e-05 | – | – |
| G9U G41C U47G | < 1e-05 | < 1e-05 | < 1e-05 | – |
| C10A C68G | 0.000416 ± 0.00019 | 6.2e-05 ± 2.8e-05 | 6.4e-05 ± 1.8e-05 | – |
| C8U G41U C58U C68A C70G | < 1e-05 | – | – | – |
| G60C G63A | < 1e-05 | < 1e-05 | < 1e-05 | < 1e-05 |
| A33C A36G | < 1e-05 | < 1e-05 | < 1e-05 | < 1e-05 |
| A12G C34A A36G | < 1e-05 | – | < 1e-05 | – |
| A33C C34G G40U A48U C61A | < 1e-05 | < 1e-05 | < 1e-05 | – |
| G38A G60U | < 1e-05 | < 1e-05 | < 1e-05 | < 1e-05 |
| A6U G40A A52C | < 1e-05 | < 1e-05 | < 1e-05 | – |
| C10U A12G G35C | < 1e-05 | – | – | – |
| A33U C50U G62C | < 1e-05 | < 1e-05 | < 1e-05 | – |
| G7C G13U A36C C68A | < 1e-05 | – | < 1e-05 | – |
| A6C A12U G41A | < 1e-05 | < 1e-05 | < 1e-05 | – |
| A15U U30G U46G C67G | 5.03e-05 ± 1.7e-05 | 6.26e-05 ± 1.3e-05 | 0.000146 ± 2.2e-05 | – |
| C16A G59U C68G | 0.000107 ± 3e-05 | – | – | – |
| G13U A14C G32A U46C G63A C68U U69G C71U | < 1e-05 | < 1e-05 | – | – |
| G41U G63C | < 1e-05 | – | < 1e-05 | < 1e-05 |
| C10U G13U A42U U46G U57A | < 1e-05 | < 1e-05 | < 1e-05 | – |
| A33C G37A G63C | < 1e-05 | < 1e-05 | < 1e-05 | – |
| G51U G62U A64C | < 1e-05 | – | – | – |
| C10U A12C U31G A42G | < 1e-05 | – | – | – |

| Variant | self-cleavage kobs at 160 uM GlcN6P [1] [s⁻¹] | self-cleavage kobs at 640 uM GlcN6P [2] [s⁻¹] | self-cleavage kobs at 2500 uM GlcN6P [3] [s⁻¹] | self-cleavage kobs at 10000 uM GlcN6P [4] [s⁻¹] |
| --- | --- | --- | --- | --- |
| A14C G32C G35U U57A | < 1e-05 | < 1e-05 | – | – |
| C11A A15G U69G | 0.000139 ± 6.4e-05 | 0.000293 ± 0.0001 | 0.000159 ± 4.9e-05 | – |
| C34G G40U G41A C58U | < 1e-05 | < 1e-05 | – | – |
| G41U G59A | < 1e-05 | < 1e-05 | < 1e-05 | – |
| A36G G38C A42U G62A C67U C68A U69G | < 1e-05 | – | – | – |
| G43C U55A | < 1e-05 | < 1e-05 | – | – |
| G51U A53U C58A C70A | 8.95e-05 ± 1.6e-05 | 7.01e-05 ± 2.6e-05 | 5.47e-05 ± 2.1e-05 | – |
| A14U C34A G60A C61A | < 1e-05 | – | – | < 1e-05 |
| A14G A36C | < 1e-05 | < 1e-05 | – | – |
| C10A U69G | 3.29e-05 ± 1.6e-05 | – | 0.000329 ± 8.6e-05 | 3.29e-05 ± 1.6e-05 |
| A39U A42G G60U | < 1e-05 | < 1e-05 | – | – |
| G44U C58A C71A | < 1e-05 | < 1e-05 | < 1e-05 | – |
| G9A U65G C71G | < 1e-05 | < 1e-05 | < 1e-05 | – |
| U30G C34A | < 1e-05 | < 1e-05 | < 1e-05 | – |
| A42C G44A U49C | < 1e-05 | < 1e-05 | < 1e-05 | – |
| C34U U56C | < 1e-05 | < 1e-05 | < 1e-05 | < 1e-05 |
| C8A G9A G37U A39G | < 1e-05 | – | – | – |
| C34U G63A G66U | < 1e-05 | < 1e-05 | – | – |
| A33U G35A | < 1e-05 | < 1e-05 | < 1e-05 | – |
| A36C G37A U46A G66U | < 1e-05 | < 1e-05 | < 1e-05 | – |
| A12C G51C U57C A64C | < 1e-05 | < 1e-05 | < 1e-05 | – |
| C34A A36G A39U A48C | < 1e-05 | – | < 1e-05 | – |
| G37A C50A C61G | < 1e-05 | < 1e-05 | – | – |
| G13C A15U G51U C67U C68G | 6.58e-05 ± 2.5e-05 | – | – | – |
| G32U G60U | < 1e-05 | < 1e-05 | < 1e-05 | – |
| C11A A14C U31G U65G | < 1e-05 | – | – | 2.62e-05 ± 1.2e-05 |

| Variant | self-cleavage kobs at 160 uM GlcN6P [1] [s⁻¹] | self-cleavage kobs at 640 uM GlcN6P [2] [s⁻¹] | self-cleavage kobs at 2500 uM GlcN6P [3] [s⁻¹] | self-cleavage kobs at 10000 uM GlcN6P [4] [s⁻¹] |
| --- | --- | --- | --- | --- |
| A39C U49A C61U C68G | < 1e-05 | – | < 1e-05 | – |
| A15U G38C G43C G51U | < 1e-05 | < 1e-05 | – | < 1e-05 |
| G40A C50U | < 1e-05 | < 1e-05 | – | < 1e-05 |
| G13C G29U G37C C71U | < 1e-05 | – | – | – |
| A33G A39U A64U C70G | < 1e-05 | – | < 1e-05 | – |
| C8G C58A C67A | < 1e-05 | < 1e-05 | < 1e-05 | – |
| U55C C61U G63U | < 1e-05 | < 1e-05 | < 1e-05 | – |
| G35A G62U | < 1e-05 | – | < 1e-05 | < 1e-05 |
| A23C A52G U69A | 6.42e-05 ± 2.4e-05 | 9.59e-05 ± 2.5e-05 | – | – |
| C11G G13A G44U U69G | < 1e-05 | – | < 1e-05 | – |
| A12G A14C A48U | < 1e-05 | < 1e-05 | < 1e-05 | – |
| C10G U65C | < 1e-05 | < 1e-05 | < 1e-05 | < 1e-05 |
| G7C U45G G59A | < 1e-05 | < 1e-05 | < 1e-05 | < 1e-05 |
| U31G A33U U47G | < 1e-05 | – | – | – |
| G44C A64U | < 1e-05 | – | < 1e-05 | – |
| G43A G59A A64U | < 1e-05 | – | – | < 1e-05 |
| C10U C11G A33U | < 1e-05 | < 1e-05 | < 1e-05 | < 1e-05 |
| A36U U46A | < 1e-05 | < 1e-05 | < 1e-05 | < 1e-05 |
| G7A G43C | < 1e-05 | < 1e-05 | < 1e-05 | < 1e-05 |
| A12U G51A U55C | < 1e-05 | – | – | – |
| G38U A42G | < 1e-05 | < 1e-05 | – | – |
| G29A A39U G43U | < 1e-05 | – | – | – |
| C50U C70G | 0.000293 ± 0.00013 | 8.51e-05 ± 1.6e-05 | 6.07e-05 ± 1.3e-05 | – |
| G29U C34G G38U G44U | < 1e-05 | < 1e-05 | – | – |
| A36C G38C U56C | < 1e-05 | – | < 1e-05 | – |
| A12G G35U A53U | < 1e-05 | – | – | < 1e-05 |

— the supplement of paper PMC7125110
